This passage reports fold decrease in the amount pulled down against WT Sox2 and subcellular translocation assay: proportion of co-transfected COS-7 cells with altered distribution of MYC-Grg5, mutant against WT Sox2 results from article PMC4148960.

One test concerns the target GST-fused Grg1 (UniProt Q62440). Put plainly: pull-down; GST-Grg1 or GST-Grg5 from lysed BL21 E. coli incubated with S^35-labelled in vitro translated Sox2 proteins; pulled down with Glutathione-sepharose 4B beads; PAGE gel on a phosphorimager.
A further test concerns the target GST-fused Grg5 (UniProt P63002). The test is described as above.
Test [1] deals with MYC-Grg5 (in COS-7 cells) (UniProt P63002).
Sequence of MYC-Grg5 (in COS-7 cells) (P63002 whole entry): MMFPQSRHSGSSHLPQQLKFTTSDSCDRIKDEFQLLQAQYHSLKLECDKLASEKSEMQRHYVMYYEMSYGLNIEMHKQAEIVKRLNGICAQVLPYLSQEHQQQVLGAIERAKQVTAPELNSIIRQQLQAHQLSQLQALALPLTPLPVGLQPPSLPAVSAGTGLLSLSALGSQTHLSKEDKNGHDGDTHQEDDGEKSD

Sequence of radiolabelled Sox2^M203–209 (in vitro translated) (P48432 whole entry): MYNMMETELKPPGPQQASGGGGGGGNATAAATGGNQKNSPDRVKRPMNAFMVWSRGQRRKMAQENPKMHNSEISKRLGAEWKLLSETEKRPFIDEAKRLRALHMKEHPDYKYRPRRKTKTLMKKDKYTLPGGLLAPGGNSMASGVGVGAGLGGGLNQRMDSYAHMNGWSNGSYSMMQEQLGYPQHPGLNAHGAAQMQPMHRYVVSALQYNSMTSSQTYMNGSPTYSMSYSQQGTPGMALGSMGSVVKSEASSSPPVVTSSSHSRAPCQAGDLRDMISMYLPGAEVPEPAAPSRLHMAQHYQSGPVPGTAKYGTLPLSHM
Sequence of Sox2^M203–209 mutant (transfected, COS-7 cells) (P48432 whole entry, change not shown): as the sequence (P48432 whole entry) above
Sequence of GST-fused Grg1 (Q62440 whole entry, the tested form may be a part): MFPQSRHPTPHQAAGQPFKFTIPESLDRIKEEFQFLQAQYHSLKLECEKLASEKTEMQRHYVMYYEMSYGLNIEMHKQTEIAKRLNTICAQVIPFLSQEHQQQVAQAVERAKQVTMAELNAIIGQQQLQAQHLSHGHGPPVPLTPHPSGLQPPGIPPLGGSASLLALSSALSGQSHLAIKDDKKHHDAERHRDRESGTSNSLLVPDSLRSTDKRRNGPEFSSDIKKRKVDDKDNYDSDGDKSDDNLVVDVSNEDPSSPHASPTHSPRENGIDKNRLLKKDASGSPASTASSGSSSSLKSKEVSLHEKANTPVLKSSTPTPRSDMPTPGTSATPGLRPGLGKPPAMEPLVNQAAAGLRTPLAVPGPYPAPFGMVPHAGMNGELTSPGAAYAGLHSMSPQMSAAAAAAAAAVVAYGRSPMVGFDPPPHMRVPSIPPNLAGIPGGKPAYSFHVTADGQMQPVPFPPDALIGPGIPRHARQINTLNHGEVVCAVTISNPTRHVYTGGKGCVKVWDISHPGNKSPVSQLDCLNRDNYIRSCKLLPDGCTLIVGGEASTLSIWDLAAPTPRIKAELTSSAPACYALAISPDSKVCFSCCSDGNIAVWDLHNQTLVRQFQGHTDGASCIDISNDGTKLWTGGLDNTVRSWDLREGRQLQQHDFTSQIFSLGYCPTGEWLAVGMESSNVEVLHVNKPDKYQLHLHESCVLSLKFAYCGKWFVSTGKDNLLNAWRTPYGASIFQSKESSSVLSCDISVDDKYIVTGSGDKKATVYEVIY
Sequence of GST-fused Grg5 (P63002 whole entry, the tested form may be a part): as the sequence (P63002 whole entry) above

“radiolabelled Sox2^M203–209 (in vitro translated) (from UniProt P48432 1-319) (natural protein)”: the fold decrease in the amount pulled down against WT Sox2 in the test with GST-fused Grg1 and with GST-fused Grg5 was 4 fold throughout.
Regarding “Sox2^M203–209 mutant (transfected, COS-7 cells) (from UniProt P48432 1-319) (natural protein)”, the subcellular translocation assay: proportion of co-transfected COS-7 cells with altered distribution of MYC-Grg5, mutant against WT Sox2 in test [1] amounted to 50%.
